Experimental data taken from PMC11618457.
Where a chain is given by its changes, count along the chain named. Where two headings read alike, the source gives them in different places.

Legend:
Experiment in all cases: smFRET
[1] = molecular target: T1, Zur(Zn) Cy5-C113 (Escherichia coli, UniProt P0AC51 1-171, C17S;C152S;C158S)
T1 sequence: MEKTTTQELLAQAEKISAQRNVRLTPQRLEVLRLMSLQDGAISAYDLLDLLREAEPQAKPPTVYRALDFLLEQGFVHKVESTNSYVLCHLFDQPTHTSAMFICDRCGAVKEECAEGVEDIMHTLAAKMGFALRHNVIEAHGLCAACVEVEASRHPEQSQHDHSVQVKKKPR

[2] = molecular target: T2, Zur(Zn) D49A Cy5-C113 (Escherichia coli, UniProt P0AC51 1-171, C17S;D49A;C152S;C158S)
T2 sequence: T1 sequence with D49A

[3] = molecular target: T2, Zur(Zn) D49A Cy5-C113; remark: listed apart in the source
[4] = molecular target: T1, Zur(Zn) Cy5-C113; remark: listed apart in the source
[5] = molecular target: T3, Zur(Zn) Cy5-C158 (Escherichia coli, UniProt P0AC51 1-171, C17S;C113S;C152S)
T3 sequence: T1 sequence with C113S, S158C

B1: 31-bp znuCB promoter DNA (dsDNA)
DNA 1: AGAAGTGTGATATTATAACATTTCATGACTA
DNA 2: TAGTCATGAAATGTTATAATATCACACTTCT
B1: binds [1]; binds [2].

B2: 22-bp truncated znuCB DNA (one dyad) (dsDNA)
DNA 1: AGAAGTGTGATATTATAACATT
DNA 2: AATGTTATAATATCACACTTCT
B2: binds [3]; binds [4]; binds [5].
